Source: US20150190489A1 (ONCOTHERAPY SCIENCE, published 2015)

Target: T1, HLA-DR15 (DRB1*15:02) (human)
T1 construct: whole, on cells; Expressed on mouse fibroblast L-cells (L-DR15) or on donor APCs; also called L-DR15
Test: concluded from IFN-gamma ELISPOT with peptide-pulsed L-DR15 cells and HLA-blocking mAbs; no direct binding assay
Procedure: The immune response of Th cells to APCs pulsed with peptides and proteins were assessed by IFN-gamma ELISPOT assays (Human IFN-gamma ELISPOT kit, BD Biosciences) as described previously (Tomita Y, et al. Cancer Sci; 102: 697-705.). Briefly, the frequency of peptide-specific CD4⁺ T cells producing IFN-gamma per 3×10⁴ bulk CD4⁺ T cells upon stimulation with peptide-pulsed PBMCs (3×10⁴), or 1×10⁴ bulk CD4⁺ T cells upon stimulation with peptide-pulsed L-cells (5×10⁴/well) expressing HLA-DR was analyzed. The frequency of cells producing IFN-gamma per 1×10⁵ CTLs upon stimulation with peptide-pulsed T2 cells (2×10⁴/well) or C1R-A2402 cells (2×10⁴/well) was also analyzed. Alternatively, 5×10³ protein-loaded DCs were co-cultured with 2×10⁴ CD4⁺ T cell clones/well. The protein-loaded mature DCs were prepared from positively isolated CD14⁺ cells (day 0) as described previously (Harao M, et al. Int J Cancer 2008; 123: 2616-25.). On day 5, the DCs were cultured in the presence of the recombinant KIF20A (50 micro-g/ml) and OK432. The protein-loaded mature DCs were harvested on day 7, washed and used as stimulator in IFN-gamma ELISPOT assays. […]

B1: KIF20A (60-84) (peptide)
peptide: DSMEKVKVYLRVRPLLPSELERQED
notes: Synthetic long peptide (purity >90%), pulsed on PBMCs, DCs or L-cell transfectants; also called KIF20A (60-84) LP; KIF20A (60-84) peptide
binding result: binds
